For assay [1], the target named is 10ng/mLのタンパク質サンプル (rBcl-2; R&D Systems or in-house, not stated) (UniProt P10415). The experiment in a line: sandwich ELISA with the commercial reagents (taken as Bcl-2/100 capture, 4D7-biotin detector), 10 ng/mL protein.
In another assay the target is Bcl-2を発現しているライセート (UniProt P10415). As to the kind of experiment: sandwich ELISA with the commercial reagents (taken as Bcl-2/100 capture, 4D7-biotin detector), lysate.

For the substance mAb Bcl-2/100 (antibody), the OD in assay [1] turned out to be 0.67 OD; with Bcl-2を発現しているライセート, 0.24 OD.
